Measurements taken from publication PMC10164398.

Biological target: fluorescein-labeled NS1 (89–237) (H3N2) (influenza A virus H3N2)
Assay: […]

Sequence of fluorescein-labeled NS1 (89–237) (H3N2) (influenza A virus H3N2) (P03495 89-237 limits assumed): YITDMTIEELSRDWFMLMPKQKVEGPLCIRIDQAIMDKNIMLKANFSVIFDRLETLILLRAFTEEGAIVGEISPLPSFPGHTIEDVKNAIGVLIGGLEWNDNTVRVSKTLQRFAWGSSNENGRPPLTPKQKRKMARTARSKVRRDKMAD
Sequence of human eIF4E (P06730 whole entry): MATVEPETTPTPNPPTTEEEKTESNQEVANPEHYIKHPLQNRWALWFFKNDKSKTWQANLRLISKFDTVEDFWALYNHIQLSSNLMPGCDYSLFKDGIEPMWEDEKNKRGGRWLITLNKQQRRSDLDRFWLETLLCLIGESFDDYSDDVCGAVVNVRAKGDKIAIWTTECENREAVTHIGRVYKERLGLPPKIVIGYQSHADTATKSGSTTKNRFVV

Row | Substance | Kd [nM]
1 | eIF4G1 (88–653) (from UniProt Q04637 88-653) (domain or fragment) | 264
2 | human eIF4E (from UniProt P06730 1-217) (natural protein) | 177
